Laboratory results published in patent US20220267403A1 (FRED HUTCHINSON CANCER RESEARCH CENTER, published 2022).

B1: Clone3-6C3 (TCR, V domains shown)
Valpha: AQTVTQSQPEMSVQEAETVTLSCTYDTSESDYYLFWYKQPPSRQMILVIRQEAYKQQNATENRFSVNFQKAAKSFSLKISDSQLGDAAMYFCSSGGGADGLTFGKGTHLIIQP
Vbeta: NAGVTQTPKFRVLKTGQSMTLLCAQDMNHEYMYWYRQDPGMGLRLIHYSVGEGTTAKGEVPDGYNVSRLKKQNFLLGLESAAPSQTSVYFCASMDLAFKQYFGPGTRLTVT
B2: Clone19-5C2 (TCR, V domains shown)
Valpha: AQTVTQSQPEMSVQEAETVTLSCTYDTSESDYYLFWYKQPPSRQMILVIRQEAYKQQNATENRFSVNFQKAAKSFSLKISDSQLGDAAMYFCAYRSGSDGGSQGNLIFGKGTKLSVKP
Vbeta: ETGVTQTPRHLVMGMTNKKSLKCEQHLGHNAMYWYKQSAKKPLELMFVYSLEERVENNSVPSRFSPECPNSSHLFLHLHTLQPEDSALYLCASSQVSGYEQYFGPGTRLTVT
B3: Clone21-7A10 (TCR, V domains shown)
Valpha: GQSLEQPSEVTAVEGAIVQINCTYQTSGFYGLSWYQQHDGGAPTFLSYNALDGLEETGRFSSFLSRSDSYGYLLLQELQMKDSASYFCAVRDDYGQNFVFGPGTRLSVLP
Vbeta: NAGVMQNPRHLVRRRGQEARLRCSPMKGHSHVYWYRQLPEEGLKFMVYLQKENIIDESGMPKERFSAEFPKEGPSILRIQQVVRGDSAAYFCASSPQGDNEQFFGPGTRLTVL
B4: Clone15-3F10 (TCR, V domains shown)
Valpha: AQTVTQSQPEMSVQEAETVTLSCTYDTSENNYYLFWYKQPPSRQMILVIRQEAYKQQNATENRFSVNFQKAAKSFSLKISDSQLGDTAMYFCASMYSGGGADGLTFGKGTHLIIQP
Vbeta: EAQVTQNPRYLITVTGKKLTVTCSQNMNHEYMSWYRQDPGLGLRQIYYSMNVEVTDKGDVPEGYKVSRKEKRNFPLILESPSPNQTSLYFCASSFFSNTGELFFGEGSRLTVL
B5: Clone2-6B8 (TCR, V domains shown)
Valpha: QKEVEQNSGPLSVPEGAIASLNCTYSDRGSQSFFWYRQYSGKSPELIMFIYSNGDKEDGRFTAQLNKASQYVSLLIRDSQPSDSATYLCAVPDDAGNMLTFGGGTRLMVKP
Vbeta: DAGITQSPRYKITETGRQVTLMCHQTWSHSYMFWYRQDLGHGLRLIYYSAAADITDKGEVPDGYVVSRSKTENFPLTLESATRSQTSVYFCASSELPAGGTNEQFFGPGTRLTVL
B6: L5A synthetic peptide RLARAALVL (peptide)
peptide: RLARAALVL
notes: Alanine-substituted variant of 5T4p17
B7: R4A synthetic peptide RLAALALVL (peptide)
peptide: RLAALALVL
notes: as for B6
B8: R1A synthetic peptide ALARLALVL (peptide)
peptide: ALARLALVL
notes: as for B6
B9: L7A synthetic peptide RLARLAAVL (peptide)
peptide: RLARLAAVL
notes: as for B6
B10: V8A synthetic peptide RLARLALAL (peptide)
peptide: RLARLALAL
notes: as for B6

Target: T1, 5T4 17-25 variant R4A (alanine-substituted) peptide on HLA-A*02:01 (human)
T1 peptide: RLAALALVL
Test: killing

Row | Binder | binding result
1 | B1 | no recognition
2 | B2 | no recognition
3 | B3 | no recognition
4 | B4 | no recognition
5 | B5 | no recognition

Target: T2, UTY peptide on HLA-A*02:01 (human)
T2 peptide: KAFQDVLYV
Test: killing

Row | Binder | binding result
6 | B1 | no recognition
7 | B2 | no recognition
8 | B3 | no recognition
9 | B4 | no recognition
10 | B5 | no recognition

Target: T3, DDX3Y peptide on HLA-A*02:01 (human)
T3 peptide: FLLDILGAT
Test: killing

Row | Binder | binding result
11 | B1 | no recognition
12 | B2 | no recognition
13 | B3 | no recognition
14 | B4 | no recognition
15 | B5 | no recognition

Target: T4, 5T4 17-25 variant R1A (alanine-substituted) peptide on HLA-A*02:01 (human)
T4 peptide: ALARLALVL
Test: killing

Row | Binder | binding result
16 | B1 | no recognition
17 | B2 | no recognition
18 | B3 | recognises
19 | B4 | recognises
20 | B5 | recognises

Target: T5, HLA-A*0201 on the surface of T2 cells (human)
T5 construct: Class I molecule that the test peptides load in the HLA-A2 stabilization assay; also called HLA-A2
Test: HLA-A2 stabilization on T2 cells, BB7.2 staining, flow cytometry
Experimental: Aliquots of 2×10⁵ T2 cells were cultured in serum-free RPMI media supplemented with human β₂-microglobulin at 5 μg/mL plus the test peptide.

Row | Binder | binding result
21 | B6 | no binding
22 | B7 | binds
23 | B8 | binds
24 | B9 | no binding
25 | B10 | no binding

Target: T6, 5T4 (trophoblast glycoprotein, TPBG) peptide on HLA-A*02:01 (human)
T6 peptide: RLARLALVL
Test: multimer staining

Row | Binder | binding result
26 | B1 | recognises
27 | B2 | recognises
28 | B3 | recognises
29 | B4 | recognises
30 | B5 | recognises
